From article PMC8327350, “Interaction between the transmembrane domains of neurotrophin receptors p75 and TrkA mediates their reciprocal activation” (The Journal of Biological Chemistry, 2021)
No end group written: not given here.

B1: human TrkA-TM (domain or fragment)
chain: MKKDETPFGVSVAVGLAVFACLFLSTLLLVLNKAGRRNK
modifications: also: 15N-labeled in one set, unlabeled in the other
notes: methionine printed before K410; human TrkA transmembrane domain, K410 to K447; the A at 442 is printed underlined and not explained; also called TrkA-TM-wt; TrkA-TMD; source: cell-free expression (E. coli Rosetta(DE3)pLysS S30 extract), in DPC micelles
B2: p75-TM-C257A (C257A point mutant form of p75TM) (domain or fragment, human)
chain: MTRGTTDNLIPVYASILAAVVVGLVAYIAFKRWNSSKQNKQ
modifications: also: 15N-labeled in one set, unlabeled in the other
notes: methionine printed before T245; Seen as monomer, noncovalent homodimer and heterodimer with TrkA-TM in the NMR samples; also called p75-C257A; p75-C257A-TM; source: cell-free expression (E. coli Rosetta(DE3)pLysS S30 extract), in DPC micelles

Assays:
[1] = molecular target: full-length TrkA tagged with mTurquoise (UniProt P04629)
[2] = molecular target: the molecule itself; assay: NMR titration; unlabeled p75-TM-C257A added incrementally to 0.5 mM 15N-labeled TrkA-TM; DPC micelles, LPR 80, pH 5.9, 318 K, 20 mM sodium phosphate
[3] = molecular target: B2; assay: NMR cross-correlated relaxation (rotational correlation time, hydrodynamic radius); cross-correlated relaxation rates of p75-TM-C257A amide signals (I259, V263, G266, A269, Y270) of monomer, homodimer and heterodimer in DPC micelles, 45 °C; conditions: both partners purified
[4] = molecular target: the molecule itself; assay: as above

full-length TrkA tagged with mTurquoise, sequence (P04629 33-796): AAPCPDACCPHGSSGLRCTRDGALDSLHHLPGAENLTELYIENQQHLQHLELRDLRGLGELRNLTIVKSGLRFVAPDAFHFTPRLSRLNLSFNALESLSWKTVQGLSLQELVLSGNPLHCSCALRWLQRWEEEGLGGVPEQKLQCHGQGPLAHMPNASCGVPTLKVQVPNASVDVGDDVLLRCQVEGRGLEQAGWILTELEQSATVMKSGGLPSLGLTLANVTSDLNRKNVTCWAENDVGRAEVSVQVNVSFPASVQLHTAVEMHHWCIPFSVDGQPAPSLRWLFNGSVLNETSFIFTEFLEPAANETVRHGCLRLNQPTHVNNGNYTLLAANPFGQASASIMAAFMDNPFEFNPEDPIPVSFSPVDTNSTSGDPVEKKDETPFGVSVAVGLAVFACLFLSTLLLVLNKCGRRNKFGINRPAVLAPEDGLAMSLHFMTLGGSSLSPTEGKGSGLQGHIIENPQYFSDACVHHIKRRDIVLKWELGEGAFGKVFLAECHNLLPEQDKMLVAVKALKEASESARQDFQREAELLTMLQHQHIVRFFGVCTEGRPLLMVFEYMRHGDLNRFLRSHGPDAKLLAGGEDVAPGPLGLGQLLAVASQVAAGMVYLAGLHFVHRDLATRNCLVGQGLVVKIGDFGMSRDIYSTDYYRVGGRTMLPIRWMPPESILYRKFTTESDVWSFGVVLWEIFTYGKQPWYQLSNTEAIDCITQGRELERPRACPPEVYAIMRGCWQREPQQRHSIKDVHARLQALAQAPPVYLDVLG

p75-TNFR (p75 with its TMD swapped with the one from the TNFR) (from UniProt P08138 29-427) (receptor)
EC50 of NGF for TrkA phosphorylation (activation loop, Western blot) in HeLa cells coexpressing TrkA and p75-TNFR, NGF 0 to 100 ng/ml [1]: 2.7 nM

p75–AGA mutation (triple mutation A262,G266,A269 to Ile) (from UniProt P08138 29-427) (receptor)
EC50 of NGF for TrkA phosphorylation (activation loop, Western blot) in HeLa cells coexpressing TrkA and p75–AGA, NGF 0 to 100 ng/ml [1]: 1.7 nM

full-length p75 tagged with enhanced YFP (from UniProt P08138 29-427) (receptor)
EC50 of NGF for TrkA phosphorylation (activation loop, Western blot) in HeLa cells coexpressing TrkA and p75, NGF 0 to 100 ng/ml [1]: 0.299 nM

B1
binding result [2]: binds
stoichiometry N [3]: 1 TrkA-TM per p75-TM-C257A (heterodimer)

B2
stoichiometry N [4]: 2 chains in the oligomer (homodimer)
